The test system of the series is participants with advanced solid tumors. In words: Phase 1 open label, multi-arm, multi-center study of MK-4830 as monotherapy or in combination with pembrolizumab (NCT03564691). It counts as in vivo, human. The note with it: 1600 mg dose level, MK-4830 monotherapy cohort.

For “MK-4830: anti-ILT4 antibody; light chain SEQ ID NO:5, heavy chain SEQ ID NO:10”, the “transient Grade 3 blood pressure increase” value is on record as “one episode”.

(Values after patent publication US20230058779A1, “COMBINATION CANCER TREATMENT USING A PD-1 ANTAGONIST, AN ILT4 ANTAGONIST, AND LENVATINIB OR SALTS THEREOF” (Merck Sharp & Dohme LLC, priority 2020, published 2023).)
